Drawing on patent US20250002593A1 (INMAGENE PTE, published 2025), this text covers Kd, koff and kon for nine molecules.

Sequences and labels used below:
B1: 5F7-2c4 (antibody, human IgG4 S228P, kappa, V domains shown)
VH: EVQLVESGGGLVKPGGSLRLSCAASGFAFTDYYLRWVRQAPGKGLEWVALIRNKAAGYTIYYSAPVKGRFTISRDDSKSTLYLQMNSLKTEDTAVYYCVRDMTIYDGYYVDYALDYWGQGTLVTVSS
VL: DIVMTQSPSSVSASVGDRVTITCRASRNINIWLSWYQQKPGKAPKLFIYKASNLHTGVPSRFSGSGSGTDFTLTISSLQPEDFATYYCLQSQSYPLTFGQGTKLEIKR
B2: 5F7-2g10 (antibody, human IgG4 S228P, kappa, V domains shown)
VH: B1 VH with R35S
VL: B1 VL
B3: 5F7-2h1 (antibody, human IgG4 S228P, kappa, V domains shown)
VH: B1 VH with F27Y, L34M, R35N
VL: B1 VL
B4: 5F7-2d3 (antibody, human IgG4 S228P, kappa, V domains shown)
VH: B1 VH with A28N, L34M, R35N
VL: B1 VL
B5: 9H11 (antibody, V domains shown)
VH: QVQLQQSGPELVKPGASVKISCKASGYAFSHSWMNWVKQRPGKGLEWIGWIHLGDGDTYYNGKFKGKATLTADKSSSTAYMQLSSLTSEDSAVYFCARSDGNYVPYAMDYWGQGTSVTVSS
VL: DIVITQTTSSLSASLGDRVTISCRASQDISNYLSWYQQKPDGTVKLLIYYTSRLHSGVPSRFSGSGSGTDYSLTISSLEQEDIATYFCQQDSEHPWTFGGGTELDVR
notes: Mouse variable regions, recombinantly expressed
B6: 1A21 (antibody, V domains shown)
VH: EVQLQQSGPELVKPGDSVKISCKASGYSFTGYFMNWVMQSHGKSLEWIGRINPYNGDTFYNQKFKGKATLTVDKSSSTAHMELRSLTSEDSAVYYCAGLGHWYFDVWGTGTTVTVSS
VL: DIVMTQSTLSLPVSLGDQASISCRSSQSIVHSNGNTYLEWYLQKPGQSPKLLIYKVSNRFSGVPDRFSGSGSGTDFTLKISRVEAEDLGVYYCFQGSHVPWTFGGGTKLEIK
notes: as for B5
B7: 10F6 (antibody, V domains shown)
VH: QVQLQQSGAELVKPGASVRLSCKASGYTFTEFTIHWVKQRSGQGLEWIGWFYPGSDFIKYNEKFKDKATLTADKSSNTVYMELLRLTSEDSAVYFCARHEDRLSDYSYEWYFDVWGAGTAVTVSS
VL: DIQMTQSPASLSASVGETVTITCRASENIDSYLAWYQQKQGKSPQLLVYGATLLADGVPSRFSGSGSGTQYSLKINSLQSEDVAEYFCQHYYSIPLTFGAGTKLELK
notes: as for B5
B8: 10D12 (antibody, V domains shown)
VH: QVQLQQPGTELVKPGASVKLSCKASGYTFTRYWMHWVRQRPGQGLEWIGNINPNIGRANYNEKFKNKATLTVDKSSSTAYMQLSSLTSEDSAVYYCARPGETTDYWGQGTTLTVSS
VL: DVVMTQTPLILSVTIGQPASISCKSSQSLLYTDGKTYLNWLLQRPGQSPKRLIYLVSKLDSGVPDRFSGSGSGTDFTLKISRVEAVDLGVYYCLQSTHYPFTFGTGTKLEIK
notes: as for B5
B9: 1C11 (antibody, V domains shown)
VH: EVQVQQSGTELVKPGASVKLSCKASGYTFTNYWLHWVKQRPGQGLEWIGNINPSNGGTNYNEKFKTKATLTVDKSSSTAYMQLSSLTSEDSAVYYCARYSTGFAYWGQGTLVTVSA
VL: DIVLTQTTASLAVSLGQRATISCRASESVDTYGASFMHWYQQKPGQPPKLLIYRASNLESGIPARFSGSGSRTDFTLTVNPVEADDVATYYCQQSNEDPRTFGGGTKLEIK
notes: as for B5

Substitutions are numbered along the chain they refer to.

The target of the first assay is T1, Recombinant hIL-36R protein (Acrobio, Cat #IL2-H52H6) (human, UniProt Q9HB29 20-335).
T1 construct: Bought soluble protein; also called recombinant human IL-36R protein
T1 sequence: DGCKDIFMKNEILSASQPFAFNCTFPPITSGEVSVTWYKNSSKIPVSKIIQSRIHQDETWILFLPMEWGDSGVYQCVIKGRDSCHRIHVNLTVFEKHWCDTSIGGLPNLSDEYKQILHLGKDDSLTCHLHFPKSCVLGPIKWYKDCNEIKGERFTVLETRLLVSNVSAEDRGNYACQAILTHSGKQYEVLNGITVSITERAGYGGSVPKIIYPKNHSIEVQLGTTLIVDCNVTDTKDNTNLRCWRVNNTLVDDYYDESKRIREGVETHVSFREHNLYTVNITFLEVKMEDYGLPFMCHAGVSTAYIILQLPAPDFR
The experiment in a line: BLI (Gator).
One may read the Kd as the equilibrium constant for the complex coming apart. What is called koff is a measure of how fast the partners let go of each other. The kon is a measure of how fast the partners come together. Regarding B1, the Kd was determined as 2060 nM, the koff was determined as 0.000418 s⁻¹ and the kon stood at 203 M⁻¹ s⁻¹.

Turning to B2, the Kd is 0.638 nM, the koff was found to be 1.84e-05 s⁻¹ and the kon worked out at 28900 M⁻¹ s⁻¹.

As for B3, the Kd was below 0.1 nM and the kon worked out at 41000 M⁻¹ s⁻¹.

As to B4, the dissociation constant Kd was found to be 2.46 nM, the koff was determined as 8.83e-05 s⁻¹ and the kon was 35900 M⁻¹ s⁻¹.

The target in another assay is T1, Recombinant hIL-36R protein (Acrobio, …). Briefly: BLI (Gator), antibody on Protein A sensor, hIL-36R analyte.
For the molecule B5, the Kd is 0.00631 nM.

As for B6, the Kd came out at 0.536 nM.

Turning to B7, the Kd amounted to 0.901 nM.

As for B8, the Kd was found to be 4.03 nM.

In the case of B9, the Kd turned out to be 13.7 nM.

The target is the same in a further assay. The experiment in a line: BLI (Gator), antibody on Protein A sensor, hIL-36R analyte; stands under the head kon(1/s), read as koff from KD = koff/kon.
B5: the koff was 5.79e-07 s⁻¹.

In the case of B6, the off-rate constant (koff) was 4.01e-05 s⁻¹.

For the molecule B7, the koff came out at 0.000137 s⁻¹.

For the molecule B8, the koff worked out at 0.000321 s⁻¹.

Regarding B9, the koff was found to be 0.000872 s⁻¹.

A further assay has the same target. Briefly: BLI (Gator), antibody on Protein A sensor, hIL-36R analyte; stands under the head koff(1/Ms), read as kon from KD = koff/kon.
Take B5: the kon was determined as 91700 M⁻¹ s⁻¹.

For the molecule B6, the kon was 74900 M⁻¹ s⁻¹.

On to B7, for which the kon came to 152000 M⁻¹ s⁻¹.

Consider B8, for which the kon is 79800 M⁻¹ s⁻¹.

Consider B9, for which the kon is 63800 M⁻¹ s⁻¹.
